Test results reported in patent publication US11491212.

B1: FIXa-K247N/N249S/R338E/T343R/E410N (protein)
chain 1: not shown
chain 2: not shown
B2: FIXa-Y155F/R318Y/R338E/T343R/R403E (protein)
chain 1: not shown
chain 2: not shown
B3: FIXa-Y155F/K247N/N249S/R338E/T343R/E410N (protein)
chain 1: not shown
chain 2: not shown
B4: FIXa-Y155F/K247N/N249S/R338E/R403E/E410N (protein)
chain 1: not shown
chain 2: not shown
B5: FIXa-Y155F/R318Y/R338E/T343R/E410N (protein)
chain 1: not shown
chain 2: not shown
B6: FIXa-Y155F/K247N/N249S/T343R/R403E/E410N (protein)
chain 1: not shown
chain 2: not shown
B7: FIXa-Y155F/K247N/N249S/R338E/T343R/R403E (protein)
chain 1: not shown
chain 2: not shown
B8: FIXa-Y155F/R318Y/T343R/R403E/E410N (protein)
chain 1: not shown
chain 2: not shown
B9: FIXa-K247N/N249S/R338E/R403E/E410N (protein)
chain 1: not shown
chain 2: not shown
B10: FIXa-R338E/T343R/R403E/E410N (protein)
chain 1: not shown
chain 2: not shown
B11: FIXa-R318Y/R338E/T343R/R403E (protein)
chain 1: not shown
chain 2: not shown
B12: FIXa-Y155F/K247N/N249S/R318Y/T343R/E410N (protein)
chain 1: not shown
chain 2: not shown
B13: FIXa-K247N/N249S/R318Y/T343R/E410N (protein)
chain 1: not shown
chain 2: not shown

target: Factor X, P00742
Sequence (P00742 whole entry, looked up): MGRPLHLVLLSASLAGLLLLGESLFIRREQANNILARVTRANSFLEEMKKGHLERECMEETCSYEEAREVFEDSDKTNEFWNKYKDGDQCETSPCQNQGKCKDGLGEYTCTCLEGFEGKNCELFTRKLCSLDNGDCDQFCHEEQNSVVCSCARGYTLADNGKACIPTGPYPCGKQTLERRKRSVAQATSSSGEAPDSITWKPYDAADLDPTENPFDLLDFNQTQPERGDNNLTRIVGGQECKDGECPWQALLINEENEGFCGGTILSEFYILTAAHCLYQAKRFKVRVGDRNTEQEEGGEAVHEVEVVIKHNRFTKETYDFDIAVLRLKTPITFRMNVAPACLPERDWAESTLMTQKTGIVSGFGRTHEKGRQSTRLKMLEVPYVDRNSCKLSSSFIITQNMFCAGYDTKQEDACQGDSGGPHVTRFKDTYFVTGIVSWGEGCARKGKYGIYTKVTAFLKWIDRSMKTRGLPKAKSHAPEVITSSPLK

For B1, which KM is on record?
The KM was 0.0275 µM.

Which kcat/KM does the source give for B2 here?
Its kcat/KM is 2.6e+08 M⁻¹ s⁻¹.

B3 was tested. Which KM did it give?
Its KM is 0.027 µM.

How did the kcat/KM turn out when B4 was run?
The kcat/KM was 1.1e+08 M⁻¹ s⁻¹.

How did the kcat/KM turn out when B5 was run?
Its kcat/KM is 3.7e+08 M⁻¹ s⁻¹.

How did the KM turn out when B6 was run?
The KM was 0.052 µM.

B7 was tested. Which KM did it give?
The KM was 0.0251 µM.

For B8, which kcat/KM is on record?
Its kcat/KM is 2.6e+08 M⁻¹ s⁻¹.

B9 was tested. Which kcat/KM did it give?
Its kcat/KM is 1.9e+08 M⁻¹ s⁻¹.

With B10 as the protein, how does the kcat/KM read?
The kcat/KM was 3e+08 M⁻¹ s⁻¹.

B11 was tested. Which kcat/KM did it give?
Its kcat/KM is 1.6e+08 M⁻¹ s⁻¹.

B12 was tested. Which KM did it give?
The KM was 0.0381 µM.

For B13, which KM is on record?
Its KM is 0.0401 µM.

target: Factor X (FX), P00742
Sequence (P00742 whole entry, looked up): as above

How did the kcat turn out when B1 was run?
The kcat was 7.9 s⁻¹.

With B2 as the protein, how does the KM read?
The KM was 0.034 µM.

B3 was tested. Which kcat did it give?
Its kcat is 4.8 s⁻¹.

Which KM does the source give for B4 here?
The KM was 0.0487 µM.

B5 was tested. Which KM did it give?
The KM was 0.0256 µM.

For B6, which kcat is on record?
The kcat was 15 s⁻¹.

How did the kcat turn out when B7 was run?
The kcat was 14.6 s⁻¹.

How did the KM turn out when B8 was run?
Its KM is 0.034 µM.

With B9 as the protein, how does the KM read?
The KM was 0.025 µM.

B10 was tested. Which KM did it give?
The KM was 0.0347 µM.

With B11 as the protein, how does the KM read?
The KM was 0.0443 µM.

B12 was tested. Which kcat did it give?
Its kcat is 8.1 s⁻¹.

B13 was tested. Which kcat did it give?
Its kcat is 6.1 s⁻¹.
